Patent US20240254182A1

Biological target: design 9 G-CSFR(Ig-CRH)E, tag cleaved (human) (UniProt Q99062)
Test: SPR, WT G-CSF against design 9 G-CSFR(Ig-CRH)E; steady state derived affinity constant

**Q.** “WT G-CSF, purified from insect cells, tag cleaved (from UniProt P09919 31-206) (ligand)” was tested. Which KD fold change (against WT:WT) did it give?
**A.** Its KD fold change (against WT:WT) is 8810 fold.
